Assay results reported in publication PMC12181280 (NPJ Biofilms and Microbiomes, 2025).

Legend:
[1] = target: S. aureus GudB (glutamate dehydrogenase) (S. aureus (endogenous in USA300 JE2)); test: native gel or EMSA
SEC = target: the molecule itself; test: SEC
native gel or EMSA = target: the molecule itself; test: native gel or EMSA

| Molecule | stoichiometry N (SEC) | other results |
| --- | --- | --- |
| S. aureus GudB (glutamate dehydrogenase) (enzyme) | – | stoichiometry N [1]: 3 |
| N-terminally His-tagged WT Bcd (B. subtilis Val/Leu/Ile dehydrogenase) (enzyme, UniProt P54531 1-364, looked up) MELFKYMEKYDYEQLVFCQDEQSGLKAIIAIHDTTLGPALGGTRMWTYENEEAAIEDALRLARGMTYKNAAAGLNLGGGKTVIIGDPRKDKNEEMFRAFGRYIQGLNGRYITAEDVGTTVEDMDIIHDETDYVTGISPAFGSSGNPSPVTAYGVYRGMKAAAKAAFGTDSLEGKTIAVQGVGNVAYNLCRHLHEEGANLIVTDINKQSVQRAVEDFGARAVDPDDIYSQDCDIYAPCALGATINDDTIKQLKAKVIAGAANNQLKETRHGDQIHEMGIVYAPDYVINAGGVINVADELYGYNAERALKKVEGIYGNIERVLEISQRDGIPAYLAADRLAEERIERMRRSRSQFLQNGHSVLSRR | 6 | – |
| N-terminally His-tagged Bcd(K80A) (enzyme, B. subtilis, UniProt P54531 1-364, looked up) MELFKYMEKYDYEQLVFCQDEQSGLKAIIAIHDTTLGPALGGTRMWTYENEEAAIEDALRLARGMTYKNAAAGLNLGGGATVIIGDPRKDKNEEMFRAFGRYIQGLNGRYITAEDVGTTVEDMDIIHDETDYVTGISPAFGSSGNPSPVTAYGVYRGMKAAAKAAFGTDSLEGKTIAVQGVGNVAYNLCRHLHEEGANLIVTDINKQSVQRAVEDFGARAVDPDDIYSQDCDIYAPCALGATINDDTIKQLKAKVIAGAANNQLKETRHGDQIHEMGIVYAPDYVINAGGVINVADELYGYNAERALKKVEGIYGNIERVLEISQRDGIPAYLAADRLAEERIERMRRSRSQFLQNGHSVLSRR | 6 | – |
| Bcd, native complex in B. subtilis NCIB3610 cell lysate (enzyme, B. subtilis (endogenous in NCIB3610), UniProt P54531 1-364, looked up) MELFKYMEKYDYEQLVFCQDEQSGLKAIIAIHDTTLGPALGGTRMWTYENEEAAIEDALRLARGMTYKNAAAGLNLGGGKTVIIGDPRKDKNEEMFRAFGRYIQGLNGRYITAEDVGTTVEDMDIIHDETDYVTGISPAFGSSGNPSPVTAYGVYRGMKAAAKAAFGTDSLEGKTIAVQGVGNVAYNLCRHLHEEGANLIVTDINKQSVQRAVEDFGARAVDPDDIYSQDCDIYAPCALGATINDDTIKQLKAKVIAGAANNQLKETRHGDQIHEMGIVYAPDYVINAGGVINVADELYGYNAERALKKVEGIYGNIERVLEISQRDGIPAYLAADRLAEERIERMRRSRSQFLQNGHSVLSRR | – | stoichiometry N (native gel or EMSA): 6 |
